Experimental data published in US20140087995A1 (published 2014).
Numbered stars: 1 amine (or outer) side, 2 acyl side, 3 side chain; on linkers, the order of the positions; unused ones are H or OH. Bridge positions count the residues as written; N and C are the ends. Side chains are listed from the residue outwards. Ends that are not written are not given here. * marks the point of attachment. C20 diacid = O=C(O)CCCCCCCCCCCCCCCCCCC(=O)*; γGlu = O=C(O)[C@H](CCC(=O)[*:2])N[*:1]; AEEA = NCCOCCOCC(=O)O

T1: human amylin receptor (amylin 3(a) receptor: human calcitonin receptor plus RAMP-3) (human, UniProt P30988 25-474; O60896 24-148, limits assumed)
T1 sequence (looked up) 1: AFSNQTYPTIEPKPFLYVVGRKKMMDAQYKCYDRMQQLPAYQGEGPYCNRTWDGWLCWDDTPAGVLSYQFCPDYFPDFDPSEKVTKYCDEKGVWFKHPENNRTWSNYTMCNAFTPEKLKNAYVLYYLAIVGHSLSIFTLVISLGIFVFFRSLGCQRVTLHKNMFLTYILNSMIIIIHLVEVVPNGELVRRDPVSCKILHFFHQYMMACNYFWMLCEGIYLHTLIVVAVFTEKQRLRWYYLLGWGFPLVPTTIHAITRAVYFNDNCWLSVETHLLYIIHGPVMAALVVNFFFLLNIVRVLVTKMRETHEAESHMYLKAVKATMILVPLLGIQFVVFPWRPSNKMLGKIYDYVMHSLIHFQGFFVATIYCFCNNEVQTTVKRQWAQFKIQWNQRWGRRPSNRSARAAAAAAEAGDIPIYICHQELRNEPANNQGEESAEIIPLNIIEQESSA
T1 sequence (looked up) 2: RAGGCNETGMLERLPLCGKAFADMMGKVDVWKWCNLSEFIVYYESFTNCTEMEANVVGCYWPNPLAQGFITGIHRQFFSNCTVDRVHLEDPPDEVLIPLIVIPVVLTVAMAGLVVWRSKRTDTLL

T2: human calcitonin receptor (human, UniProt P30988 25-474)
T2 sequence (looked up): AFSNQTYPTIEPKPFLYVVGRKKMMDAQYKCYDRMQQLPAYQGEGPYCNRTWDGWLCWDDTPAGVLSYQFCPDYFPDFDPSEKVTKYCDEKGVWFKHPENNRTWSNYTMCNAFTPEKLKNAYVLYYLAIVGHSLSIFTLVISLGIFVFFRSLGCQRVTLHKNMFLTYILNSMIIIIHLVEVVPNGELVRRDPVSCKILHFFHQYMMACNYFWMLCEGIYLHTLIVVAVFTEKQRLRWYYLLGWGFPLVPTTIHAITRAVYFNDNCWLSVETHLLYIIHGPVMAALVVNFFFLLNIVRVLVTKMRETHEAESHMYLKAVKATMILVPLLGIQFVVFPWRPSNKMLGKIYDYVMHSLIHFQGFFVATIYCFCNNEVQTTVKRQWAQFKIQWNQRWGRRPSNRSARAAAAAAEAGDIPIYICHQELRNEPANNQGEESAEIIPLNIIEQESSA


Experiments:
[1] = molecular target: T1, human amylin receptor (amylin 3(a) …); assay: cell-based or functional assay
[2] = molecular target: T2, human calcitonin receptor; assay: cell-based or functional assay

| Ratio hCT/hAmylin funct. [1] | hAmylin-R funct. EC50 [1] | hCTR funct. EC50 [2] | Binder |
| --- | --- | --- | --- |
| 9.2 ratio | 0.22 nM | 2.03 nM | {C20 diacid-γGlu}-KCNTATCATQRLANFLRHSSPNFGAIPSSTPVGSETY-NH2 (disulfide 2-7; SMILES CC[C@H](C)[C@H](NC(=O)[C@H](C)NC(=O)CNC(=O)[C@H](Cc1ccccc1)NC(=O)[C@H](CC(N)=O)NC(=O)[C@@H]1CCCN1C(=O)[C@H](CO)NC(=O)[C@H](CO)NC(=O)[C@H](Cc1c[nH]cn1)NC(=O)[C@H](CCCNC(=N)N)NC(=O)[C@H](CC(C)C)NC(=O)[C@H](Cc1ccccc1)NC(=O)[C@H](CC(N)=O)NC(=O)[C@H](C)NC(=O)[C@H](CC(C)C)NC(=O)[C@H](CCCNC(=N)N)NC(=O)[C@H](CCC(N)=O)NC(=O)[C@@H](NC(=O)[C@H](C)NC(=O)[C@@H]1CSSC[C@H](NC(=O)[C@H](CCCCN)NC(=O)CC[C@H](NC(=O)CCCCCCCCCCCCCCCCCCC(=O)O)C(=O)O)C(=O)N[C@@H](CC(N)=O)C(=O)N[C@@H]([C@@H](C)O)C(=O)N[C@@H](C)C(=O)N[C@@H]([C@@H](C)O)C(=O)N1)[C@@H](C)O)C(=O)N1CCC[C@H]1C(=O)N[C@@H](CO)C(=O)N[C@@H](CO)C(=O)N[C@H](C(=O)N1CCC[C@H]1C(=O)N[C@H](C(=O)NCC(=O)N[C@@H](CO)C(=O)N[C@@H](CCC(=O)O)C(=O)N[C@H](C(=O)N[C@@H](Cc1ccc(O)cc1)C(N)=O)[C@@H](C)O)C(C)C)[C@@H](C)O, Synthetic acylated analogue of human amylin; also called compound 28) |
| 29.9 ratio | 0.212 nM | 6.34 nM | K([AEEA-γGlu-C20 diacid])CNTATCATQRLANFLRHSSPNFGAIPSSTNVGSETY-NH2 (disulfide 2-7; N-terminus assumed; SMILES CC[C@H](C)[C@H](NC(=O)[C@H](C)NC(=O)CNC(=O)[C@H](Cc1ccccc1)NC(=O)[C@H](CC(N)=O)NC(=O)[C@@H]1CCCN1C(=O)[C@H](CO)NC(=O)[C@H](CO)NC(=O)[C@H](Cc1c[nH]cn1)NC(=O)[C@H](CCCNC(=N)N)NC(=O)[C@H](CC(C)C)NC(=O)[C@H](Cc1ccccc1)NC(=O)[C@H](CC(N)=O)NC(=O)[C@H](C)NC(=O)[C@H](CC(C)C)NC(=O)[C@H](CCCNC(=N)N)NC(=O)[C@H](CCC(N)=O)NC(=O)[C@@H](NC(=O)[C@H](C)NC(=O)[C@@H]1CSSC[C@H](NC(=O)[C@@H](N)CCCCNC(=O)COCCOCCNC(=O)CC[C@H](NC(=O)CCCCCCCCCCCCCCCCCCC(=O)O)C(=O)O)C(=O)N[C@@H](CC(N)=O)C(=O)N[C@@H]([C@@H](C)O)C(=O)N[C@@H](C)C(=O)N[C@@H]([C@@H](C)O)C(=O)N1)[C@@H](C)O)C(=O)N1CCC[C@H]1C(=O)N[C@@H](CO)C(=O)N[C@@H](CO)C(=O)N[C@H](C(=O)N[C@@H](CC(N)=O)C(=O)N[C@H](C(=O)NCC(=O)N[C@@H](CO)C(=O)N[C@@H](CCC(=O)O)C(=O)N[C@H](C(=O)N[C@@H](Cc1ccc(O)cc1)C(N)=O)[C@@H](C)O)C(C)C)[C@@H](C)O, Synthetic acylated analogue of human amylin; also called compound 26) |
| 6.4 ratio | 0.112 nM | 0.717 nM | {C20 diacid-γGlu}-KCNTATCATQRLAEFLRHSSPNFGAIPSSTPVGSNTY-NH2 (disulfide 2-7; SMILES CC[C@H](C)[C@H](NC(=O)[C@H](C)NC(=O)CNC(=O)[C@H](Cc1ccccc1)NC(=O)[C@H](CC(N)=O)NC(=O)[C@@H]1CCCN1C(=O)[C@H](CO)NC(=O)[C@H](CO)NC(=O)[C@H](Cc1c[nH]cn1)NC(=O)[C@H](CCCNC(=N)N)NC(=O)[C@H](CC(C)C)NC(=O)[C@H](Cc1ccccc1)NC(=O)[C@H](CCC(=O)O)NC(=O)[C@H](C)NC(=O)[C@H](CC(C)C)NC(=O)[C@H](CCCNC(=N)N)NC(=O)[C@H](CCC(N)=O)NC(=O)[C@@H](NC(=O)[C@H](C)NC(=O)[C@@H]1CSSC[C@H](NC(=O)[C@H](CCCCN)NC(=O)CC[C@H](NC(=O)CCCCCCCCCCCCCCCCCCC(=O)O)C(=O)O)C(=O)N[C@@H](CC(N)=O)C(=O)N[C@@H]([C@@H](C)O)C(=O)N[C@@H](C)C(=O)N[C@@H]([C@@H](C)O)C(=O)N1)[C@@H](C)O)C(=O)N1CCC[C@H]1C(=O)N[C@@H](CO)C(=O)N[C@@H](CO)C(=O)N[C@H](C(=O)N1CCC[C@H]1C(=O)N[C@H](C(=O)NCC(=O)N[C@@H](CO)C(=O)N[C@@H](CC(N)=O)C(=O)N[C@H](C(=O)N[C@@H](Cc1ccc(O)cc1)C(N)=O)[C@@H](C)O)C(C)C)[C@@H](C)O, Synthetic acylated analogue of human amylin; also called compound 31) |
| 46.2 ratio | 0.217 nM | 10 nM | K([AEEA-AEEA-γGlu-C20 diacid])CNTATCATQRLANFLRHSSPNFGAIPSSTNVGSETY-NH2 (disulfide 2-7; N-terminus assumed; SMILES CC[C@H](C)[C@H](NC(=O)[C@H](C)NC(=O)CNC(=O)[C@H](Cc1ccccc1)NC(=O)[C@H](CC(N)=O)NC(=O)[C@@H]1CCCN1C(=O)[C@H](CO)NC(=O)[C@H](CO)NC(=O)[C@H](Cc1c[nH]cn1)NC(=O)[C@H](CCCNC(=N)N)NC(=O)[C@H](CC(C)C)NC(=O)[C@H](Cc1ccccc1)NC(=O)[C@H](CC(N)=O)NC(=O)[C@H](C)NC(=O)[C@H](CC(C)C)NC(=O)[C@H](CCCNC(=N)N)NC(=O)[C@H](CCC(N)=O)NC(=O)[C@@H](NC(=O)[C@H](C)NC(=O)[C@@H]1CSSC[C@H](NC(=O)[C@@H](N)CCCCNC(=O)COCCOCCNC(=O)COCCOCCNC(=O)CC[C@H](NC(=O)CCCCCCCCCCCCCCCCCCC(=O)O)C(=O)O)C(=O)N[C@@H](CC(N)=O)C(=O)N[C@@H]([C@@H](C)O)C(=O)N[C@@H](C)C(=O)N[C@@H]([C@@H](C)O)C(=O)N1)[C@@H](C)O)C(=O)N1CCC[C@H]1C(=O)N[C@@H](CO)C(=O)N[C@@H](CO)C(=O)N[C@H](C(=O)N[C@@H](CC(N)=O)C(=O)N[C@H](C(=O)NCC(=O)N[C@@H](CO)C(=O)N[C@@H](CCC(=O)O)C(=O)N[C@H](C(=O)N[C@@H](Cc1ccc(O)cc1)C(N)=O)[C@@H](C)O)C(C)C)[C@@H](C)O, Synthetic acylated analogue of human amylin; also called compound 25) |
| 12.6 ratio | 0.134 nM | 1.68 nM | {C20 diacid-γGlu}-KCNTATCATQRLAHFLRHSSPNFGAIPSSTNVGSETY-NH2 (disulfide 2-7; SMILES CC[C@H](C)[C@H](NC(=O)[C@H](C)NC(=O)CNC(=O)[C@H](Cc1ccccc1)NC(=O)[C@H](CC(N)=O)NC(=O)[C@@H]1CCCN1C(=O)[C@H](CO)NC(=O)[C@H](CO)NC(=O)[C@H](Cc1c[nH]cn1)NC(=O)[C@H](CCCNC(=N)N)NC(=O)[C@H](CC(C)C)NC(=O)[C@H](Cc1ccccc1)NC(=O)[C@H](Cc1c[nH]cn1)NC(=O)[C@H](C)NC(=O)[C@H](CC(C)C)NC(=O)[C@H](CCCNC(=N)N)NC(=O)[C@H](CCC(N)=O)NC(=O)[C@@H](NC(=O)[C@H](C)NC(=O)[C@@H]1CSSC[C@H](NC(=O)[C@H](CCCCN)NC(=O)CC[C@H](NC(=O)CCCCCCCCCCCCCCCCCCC(=O)O)C(=O)O)C(=O)N[C@@H](CC(N)=O)C(=O)N[C@@H]([C@@H](C)O)C(=O)N[C@@H](C)C(=O)N[C@@H]([C@@H](C)O)C(=O)N1)[C@@H](C)O)C(=O)N1CCC[C@H]1C(=O)N[C@@H](CO)C(=O)N[C@@H](CO)C(=O)N[C@H](C(=O)N[C@@H](CC(N)=O)C(=O)N[C@H](C(=O)NCC(=O)N[C@@H](CO)C(=O)N[C@@H](CCC(=O)O)C(=O)N[C@H](C(=O)N[C@@H](Cc1ccc(O)cc1)C(N)=O)[C@@H](C)O)C(C)C)[C@@H](C)O, Synthetic acylated analogue of human amylin; also called compound 30) |
| 6.1 ratio | 0.363 nM | 2.21 nM | {C20 diacid-γGlu}-KCNTATCATQRLAEFLRHSSPNFGAIPSSTNVGSRTY-NH2 (disulfide 2-7; SMILES CC[C@H](C)[C@H](NC(=O)[C@H](C)NC(=O)CNC(=O)[C@H](Cc1ccccc1)NC(=O)[C@H](CC(N)=O)NC(=O)[C@@H]1CCCN1C(=O)[C@H](CO)NC(=O)[C@H](CO)NC(=O)[C@H](Cc1c[nH]cn1)NC(=O)[C@H](CCCNC(=N)N)NC(=O)[C@H](CC(C)C)NC(=O)[C@H](Cc1ccccc1)NC(=O)[C@H](CCC(=O)O)NC(=O)[C@H](C)NC(=O)[C@H](CC(C)C)NC(=O)[C@H](CCCNC(=N)N)NC(=O)[C@H](CCC(N)=O)NC(=O)[C@@H](NC(=O)[C@H](C)NC(=O)[C@@H]1CSSC[C@H](NC(=O)[C@H](CCCCN)NC(=O)CC[C@H](NC(=O)CCCCCCCCCCCCCCCCCCC(=O)O)C(=O)O)C(=O)N[C@@H](CC(N)=O)C(=O)N[C@@H]([C@@H](C)O)C(=O)N[C@@H](C)C(=O)N[C@@H]([C@@H](C)O)C(=O)N1)[C@@H](C)O)C(=O)N1CCC[C@H]1C(=O)N[C@@H](CO)C(=O)N[C@@H](CO)C(=O)N[C@H](C(=O)N[C@@H](CC(N)=O)C(=O)N[C@H](C(=O)NCC(=O)N[C@@H](CO)C(=O)N[C@@H](CCCNC(=N)N)C(=O)N[C@H](C(=O)N[C@@H](Cc1ccc(O)cc1)C(N)=O)[C@@H](C)O)C(C)C)[C@@H](C)O, Synthetic acylated analogue of human amylin; also called compound 16) |
| 7.4 ratio | 0.175 nM | 1.29 nM | KCNTATCATQRLAEFLRHSSPNFGAIPSSTNVGSNTY (C20 diacid-gGlu on the alpha amino group of the N-terminal residue; disulfide bridge Cys2-Cys7; C-terminal amide, Synthetic acylated analogue of human amylin; also called compound 9) [N^α1-[(4S)-4-carboxy-4-(19-carboxynonadecanoylamino)butanoyl]-[Glu14,Arg17,Pro21,Pro27]-h-amylin] |
| 9.8 ratio | 0.064 nM | 0.625 nM | K([AEEA-γGlu-C20 diacid])CNTATCATQRLANFLRHSSPNFGAIPPSTPVGSNTY-NH2 (disulfide 2-7, Synthetic acylated analogue of human amylin; also called compound 53) |
